Measurements reported in IntAct's records for PubMed 31515488.

B1: Pre-B-cell leukemia transcription factor 4 (Homo sapiens), Q9BYU1 (parent)
chain: MAAPPRPAPSPPAPRRLDTSDVLQQIMAITDQSLDEAQARKHALNCHRMKPALFSVLCEIKEKTVVSIRGIQDEDPPDAQLLRLDNMLLAEGVCRPEKRGRGGAVARAGTATPGGCPNDNSIEHSDYRAKLSQIRQIYHSELEKYEQACREFTTHVTNLLQEQSRMRPVSPKEIERMVGAIHGKFSAIQMQLKQSTCEAVMTLRSRLLDARRKRRNFSKQATEVLNEYFYSHLNNPYPSEEAKEELARKGGLTISQVSNWFGNKRIRYKKNMGKFQEEATIYTGKTAVDTTEVGVPGNHASCLSTPSSGSSGPFPLPSAGDAFLTLRTLASLQPPPGGGCLQSQAQGSWQGATPQPATASPAGDPGSINSSTSN
partner: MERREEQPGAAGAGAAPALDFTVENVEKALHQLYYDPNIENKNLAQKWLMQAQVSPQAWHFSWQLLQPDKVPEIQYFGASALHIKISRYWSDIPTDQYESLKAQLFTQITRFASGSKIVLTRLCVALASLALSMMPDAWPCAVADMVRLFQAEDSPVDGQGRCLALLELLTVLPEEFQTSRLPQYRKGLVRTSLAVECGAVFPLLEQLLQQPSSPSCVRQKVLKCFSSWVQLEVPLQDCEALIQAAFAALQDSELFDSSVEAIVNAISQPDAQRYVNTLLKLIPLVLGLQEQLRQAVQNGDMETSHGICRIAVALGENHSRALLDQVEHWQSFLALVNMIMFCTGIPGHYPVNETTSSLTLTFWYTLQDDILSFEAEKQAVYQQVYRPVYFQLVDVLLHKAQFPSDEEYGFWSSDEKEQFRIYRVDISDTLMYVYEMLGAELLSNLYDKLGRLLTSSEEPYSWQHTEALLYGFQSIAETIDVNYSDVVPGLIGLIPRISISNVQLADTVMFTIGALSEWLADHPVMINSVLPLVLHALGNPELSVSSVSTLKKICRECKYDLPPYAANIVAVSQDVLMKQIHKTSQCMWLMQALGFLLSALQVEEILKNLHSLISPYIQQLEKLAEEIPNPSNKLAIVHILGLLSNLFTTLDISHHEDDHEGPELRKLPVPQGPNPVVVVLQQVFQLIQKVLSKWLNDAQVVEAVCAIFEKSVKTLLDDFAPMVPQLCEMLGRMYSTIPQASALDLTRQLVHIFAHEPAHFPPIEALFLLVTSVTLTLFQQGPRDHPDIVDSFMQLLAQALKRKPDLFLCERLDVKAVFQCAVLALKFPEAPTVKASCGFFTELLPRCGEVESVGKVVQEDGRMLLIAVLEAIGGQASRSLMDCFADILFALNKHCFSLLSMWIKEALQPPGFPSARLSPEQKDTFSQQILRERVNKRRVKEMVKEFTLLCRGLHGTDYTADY
B2: Notch homolog 2 N-terminal-like protein A (Homo sapiens), Q7Z3S9 (parent)
chain: MCVTYHNGTGYCKCPEGFLGEYCQHRDPCEKNRCQNGGTCVAQAMLGKATCRCASGFTGEDCQYSTSHPCFVSRPCLNGGTCHMLSRDTYECTCQVGFTGKECQWTDACLSHPCANGSTCTTVANQFSCKCLTGFTGQKCETDVNECDIPGHCQHGGTCLNLPGSYQCQCLQGFTGQYCDSLYVPCAPSPCVNGGTCRQTGDFTFECNCLPETVRRGTELWERDREVWNGKEHDEN
partner: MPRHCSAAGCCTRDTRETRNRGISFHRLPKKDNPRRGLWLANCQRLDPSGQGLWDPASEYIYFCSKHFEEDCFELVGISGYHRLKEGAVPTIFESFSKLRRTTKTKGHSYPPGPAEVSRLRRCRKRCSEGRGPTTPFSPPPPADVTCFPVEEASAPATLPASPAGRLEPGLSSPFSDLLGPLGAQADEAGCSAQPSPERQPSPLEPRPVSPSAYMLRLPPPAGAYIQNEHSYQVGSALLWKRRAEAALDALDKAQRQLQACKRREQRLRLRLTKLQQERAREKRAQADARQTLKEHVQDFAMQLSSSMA
B3: Transcription factor 12 (Homo sapiens), Q99081 (parent)
chain: MNPQQQRMAAIGTDKELSDLLDFSAMFSPPVNSGKTRPTTLGSSQFSGSGIDERGGTTSWGTSGQPSPSYDSSRGFTDSPHYSDHLNDSRLGAHEGLSPTPFMNSNLMGKTSERGSFSLYSRDTGLPGCQSSLLRQDLGLGSPAQLSSSGKPGTAYYSFSATSSRRRPLHDSAALDPLQAKKVRKVPPGLPSSVYAPSPNSDDFNRESPSYPSPKPPTSMFASTFFMQDGTHNSSDLWSSSNGMSQPGFGGILGTSTSHMSQSSSYGNLHSHDRLSYPPHSVSPTDINTSLPPMSSFHRGSTSSSPYVAASHTPPINGSDSILGTRGNAAGSSQTGDALGKALASIYSPDHTSSSFPSNPSTPVGSPSPLTGTSQWPRPGGQAPSSPSYENSLHSLQSRMEDRLDRLDDAIHVLRNHAVGPSTSLPAGHSDIHSLLGPSHNAPIGSLNSNYGGSSLVASSRSASMVGTHREDSVSLNGNHSVLSSTVTTSSTDLNHKTQENYRGGLQSQSGTVVTTEIKTENKEKDENLHEPPSSDDMKSDDESSQKDIKVSSRGRTSSTNEDEDLNPEQKIEREKERRMANNARERLRVRDINEAFKELGRMCQLHLKSEKPQTKLLILHQAVAVILSLEQQVRERNLNPKAACLKRREEEKVSAVSAEPPTTLPGTHPGLSETTNPMGHM
partner: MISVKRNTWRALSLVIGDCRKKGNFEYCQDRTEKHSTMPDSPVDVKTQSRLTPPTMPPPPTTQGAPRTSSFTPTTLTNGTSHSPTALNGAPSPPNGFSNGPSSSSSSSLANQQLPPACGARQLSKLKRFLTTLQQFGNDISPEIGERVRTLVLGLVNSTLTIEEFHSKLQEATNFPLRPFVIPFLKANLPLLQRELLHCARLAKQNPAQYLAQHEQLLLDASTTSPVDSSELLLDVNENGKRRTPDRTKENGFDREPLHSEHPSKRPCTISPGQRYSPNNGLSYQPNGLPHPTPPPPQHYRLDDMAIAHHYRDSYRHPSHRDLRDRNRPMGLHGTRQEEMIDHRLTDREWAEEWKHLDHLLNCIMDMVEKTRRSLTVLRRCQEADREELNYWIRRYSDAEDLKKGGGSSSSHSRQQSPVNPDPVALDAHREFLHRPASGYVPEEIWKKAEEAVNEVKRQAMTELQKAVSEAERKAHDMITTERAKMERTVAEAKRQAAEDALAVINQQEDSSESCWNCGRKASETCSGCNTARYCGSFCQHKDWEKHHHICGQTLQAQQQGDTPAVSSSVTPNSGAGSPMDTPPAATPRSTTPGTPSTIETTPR

Variants of: B1
Details: with ipo13_human IPO13, O94829

Effect of a mutation on the interaction, with no effect:
T283M

Variants of: B2
Details: with thap7_human THAP7, Q9BT49

Effect of a mutation on the interaction, with no effect:
A115T
R74Q

Variants of: B3
Details: with mtg8_human RUNX1T1, Q06455

Effect of a mutation on the interaction, with no effect:
G300S
A458V
D565V
V31A
L483R
A174V
I11M
G64R
